Consider 10 molecules from patent publication US20260374875 (published 2026).

Assay [1] has as its target T1, monkey FcRn (monkey, UniProt Q8SPV9).
T1 chain 1: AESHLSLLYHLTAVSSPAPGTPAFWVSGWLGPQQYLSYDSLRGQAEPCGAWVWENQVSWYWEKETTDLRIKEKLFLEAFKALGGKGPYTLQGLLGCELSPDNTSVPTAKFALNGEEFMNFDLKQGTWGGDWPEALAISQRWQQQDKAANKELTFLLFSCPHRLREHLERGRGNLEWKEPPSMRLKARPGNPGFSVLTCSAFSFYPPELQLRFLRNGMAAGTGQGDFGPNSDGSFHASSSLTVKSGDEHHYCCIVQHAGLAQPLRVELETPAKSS
T1 chain 2: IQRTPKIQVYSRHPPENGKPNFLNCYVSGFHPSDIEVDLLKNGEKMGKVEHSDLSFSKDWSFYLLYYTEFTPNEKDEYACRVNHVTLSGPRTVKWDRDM
Description: SPR, pH 6.0, 25C. Background: SPR reads the build-up and loss of mass on a sensor chip optically.

In assay [2] the target is T2, human FcRn (human, UniProt P55899). Description: SPR, pH 7.4, 25C.
In assay [3] the target is T2, human FcRn. Description: SPR, pH 6.0, 25C.
In assay [4] the target is T2, human FcRn. Description: SPR, pH 6.0, 25C. The source holds these as a separate data set.
The target in assay [5] is T3, mouse FcRn (mouse, UniProt Q61559).
T3 chain 1: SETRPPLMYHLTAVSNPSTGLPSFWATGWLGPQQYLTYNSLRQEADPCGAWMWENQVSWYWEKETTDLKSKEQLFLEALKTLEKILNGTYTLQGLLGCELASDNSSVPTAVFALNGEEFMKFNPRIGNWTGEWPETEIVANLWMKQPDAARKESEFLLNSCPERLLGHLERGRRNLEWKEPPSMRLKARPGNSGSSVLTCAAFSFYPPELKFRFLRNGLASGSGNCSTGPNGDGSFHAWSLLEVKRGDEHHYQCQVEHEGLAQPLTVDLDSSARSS
T3 chain 2: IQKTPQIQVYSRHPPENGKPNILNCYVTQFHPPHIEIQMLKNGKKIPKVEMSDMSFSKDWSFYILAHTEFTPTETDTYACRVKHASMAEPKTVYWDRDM
Description: SPR, pH 6.0, 25C.

B1: H11A4.3 (monomer) (protein)
chain: MGWSCIILFLVATATGVHSSDKTHTCPPCPAPEAAGGPSVFLFPPKPKDTLYITREPEVTCVVVDVSHEDPEVKFNWYVDGVEVHNAKTKPREEQYNSTYRVVSVLNPYHQDWLNGKEYKCKVSNKALGAPIEKTISKAKGQPREPQVYTLPPSREEMTKNQVSLTCLVKGFYPSDIAVEWESNGQPENNYKTTPPVLDSDGSFFLYSKLTVDKSRWQQGNVFSCSVMHEALRWHYTQKSLSLSPGK
B1: the Kd (in general, the concentration at which binding is half-saturated) in assay [1] came to 1.38 nM; in assay [2] it was 7.62 nM; in assay [3], 0.288 nM; in assay [4], 0.288 nM; in assay [5], 0.839 nM.

B2: H11A4.2 (monomer) (protein)
chain: MGWSCIILFLVATATGVHSSDKTHTCPPCPAPELLGGPSVFLFPPKPKDTLYITREPEVTCVVVDVSHEDPEVKFNWYVDGVEVHNAKTKPREEQYNSTYRVVSVLNPYHQDWLNGKEYKCKVSNKALPAPIEKTISKAKGQPREPQVYTLPPSRDELTKNQVSLTCLVKGFYPSDIAVEWESNGQPENNYKTTPPVLDSDGSFFLYSKLTVDKSRWQQGNVFSCSVMHEALRWHYTQKSLSLSPGK
On to B2, for which the Kd turned out to be 0.592 nM in assay [1]; 3.51 nM in assay [2]; 0.292 nM in assay [3]; 0.292 nM in assay [4]; 0.0556 nM in assay [5].

B3: H11A4.1 (Monomer) (protein)
chain: MGWSCIILFLVATATGVHSSDKTHTCPPCPAPEAAGGPSVFLFPPKPKDTLMISRTPEVTCVVVDVSHEDPEVKFNWYVDGVEVHNAKTKPREEQYNSTYRVVSVLNPYHQDWLNGKEYKCKVSNKALGAPIEKTISKAKGQPREPQVYTLPPSREEMTKNQVSLTCLVKGFYPSDIAVEWESNGQPENNYKTTPPVLDSDGSFFLYSKLTVDKSRWQQGNVFSCSVMHEALRWHYTQKSLSLSPGK
B3: the dissociation constant (Kd) in assay [1] came to 0.928 nM; in assay [2] it was 15.2 nM; in assay [3], 0.7 nM; in assay [4], 0.559 nM; in assay [5], 0.0918 nM.

B4: W11A4.1 (Dimer) (protein)
chain: MGWSCIILFLVATATGVHSSDKTHTCPPCPAPEAAGGPSVFLFPPKPKDTLMISRTPEVTCVVVDVSHEDPEVKFNWYVDGVEVHNAKTKPREEQYNSTYRVVSVLNPYHQDWLNGKEYKCKVSNKALGAPIEKTISKAKGQPREPQVYTLPPSRDELTKNQVSLTCLVKGFYPSDIAVEWESNGQPENNYKTTPPVLDSDGSFFLYSKLTVDKSRWQQGNVFSCSVMHEALRWHYTQKSLSLSPGKGGGSGGGSGGGSGGGSSGGGSSSDKTHTSPPSPAPEAAGGPSVFLFPPKPKDTLMISRTPEVTCVVVDVSHEDPEVKFNWYVDGVEVHNAKTKPREEQYNSTYRVVSVLNPYHQDWLNGKEYKCKVSNKALGAPIEKTISKAKGQPREPQVYTLPPSRDELTKNQVSLTCLVKGFYPSDIAVEWESNGQPENNYKTTPPVLDSDGSFFLYSKLTVDKSRWQQGNVFSCSVMHEALRWHYTQKSLSLSPGK
In assay [4], B4 displayed a Kd of 1.68 nM.

B5: A3 H11A4.3 (mAb) (antibody)
chain 1: not shown
chain 2: MGWSCIILFLVATATGVHSQSALTQPASVSGSPGQSITISCTGTSSDVGGYNYVSWYQQHPGKAPKLMIYDVSKRPSGVSNRFSGSKSGNTASLTISGLQSEDEADYYCNSLTSISTWVFGGGTKLTVLGQPKANPTVTLFPPSSEELQANKATLVCLISDFYPGAVTVAWKADGSPVKAGVETTKPSKQSNNKYAASSYLSLTPEQWKSHRSYSCQVTHEGSTVEKTVAPTECS
Regarding B5, the dissociation constant Kd turned out to be 3.76 nM in assay [1]; 18.8 nM in assay [2]; 0.803 nM in assay [3]; 0.803 nM in assay [4]; 2.57 nM in assay [5].

B6: A3 H11A4.2 (mAb) (antibody)
chain 1: not shown
chain 2: MGWSCIILFLVATATGVHSQSALTQPASVSGSPGQSITISCTGTSSDVGGYNYVSWYQQHPGKAPKLMIYDVSKRPSGVSNRFSGSKSGNTASLTISGLQSEDEADYYCNSLTSISTWVFGGGTKLTVLGQPKANPTVTLFPPSSEELQANKATLVCLISDFYPGAVTVAWKADGSPVKAGVETTKPSKQSNNKYAASSYLSLTPEQWKSHRSYSCQVTHEGSTVEKTVAPTECS
On to B6, for which the dissociation constant (Kd) in assay [1] came to 0.914 nM; in assay [2], 11.2 nM; in assay [3], 1.04 nM; in assay [4], 1.04 nM; in assay [5], 0.113 nM.

B7: A3 H11A4.1 (mAb) (antibody)
chain 1: not shown
chain 2: MGWSCIILFLVATATGVHSQSALTQPASVSGSPGQSITISCTGTSSDVGGYNYVSWYQQHPGKAPKLMIYDVSKRPSGVSNRFSGSKSGNTASLTISGLQSEDEADYYCNSLTSISTWVFGGGTKLTVLGQPKANPTVTLFPPSSEELQANKATLVCLISDFYPGAVTVAWKADGSPVKAGVETTKPSKQSNNKYAASSYLSLTPEQWKSHRSYSCQVTHEGSTVEKTVAPTECS
B7: the dissociation constant (Kd) in assay [1] turned out to be 3.13 nM; in assay [2], 29.6 nM; in assay [3], 2.6 nM; in assay [4], 1.93 nM; in assay [5], 0.165 nM.

B8: B14 H11A4.1 (mAb) (antibody)
chain 1: MGWSCIILFLVATATGVHSQVQLVESGGGLVKPGGSLRLSCAASGFTFSDYYMSWIRQAPGKGLEWVSYITYSGSTIYYADSVKGRFTISRDNAKSSLYLQMNSLRAEDTAVYYCARDRGTTMVPFDYWGQGTLVTVSSASTKGPSVFPLAPSSKSTSGGTAALGCLVKDYFPEPVTVSWNSGALTSGVHTFPAVLQSSGLYSLSSVVTVPSSSLGTQTYICNVNHKPSNTKVDKKVEPKSCDKTHTCPPCPAPEAAGGPSVFLFPPKPKDTLMISRTPEVTCVVVDVSHEDPEVKFNWYVDGVEVHNAKTKPREEQYNSTYRVVSVLNPYHQDWLNGKEYKCKVSNKALGAPIEKTISKAKGQPREPQVYTLPPSREEMTKNQVSLTCLVKGFYPSDIAVEWESNGQPENNYKTTPPVLDSDGSFFLYSKLTVDKSRWQQGNVFSCSVMHEALRWHYTQKSLSLSPGK
chain 2: not shown
For B8, the equilibrium dissociation constant (Kd) in assay [1] was 4.26 nM; in assay [2], 34.1 nM; in assay [3], 3.3 nM; in assay [4], 2.85 nM; in assay [5] it was 0.189 nM.

B9: B14 H11A4.3 (mAb) (antibody)
chain 1: MGWSCIILFLVATATGVHSQVQLVESGGGLVKPGGSLRLSCAASGFTFSDYYMSWIRQAPGKGLEWVSYITYSGSTIYYADSVKGRFTISRDNAKSSLYLQMNSLRAEDTAVYYCARDRGTTMVPFDYWGQGTLVTVSSASTKGPSVFPLAPSSKSTSGGTAALGCLVKDYFPEPVTVSWNSGALTSGVHTFPAVLQSSGLYSLSSVVTVPSSSLGTQTYICNVNHKPSNTKVDKKVEPKSCDKTHTCPPCPAPEAAGGPSVFLFPPKPKDTLYITREPEVTCVVVDVSHEDPEVKFNWYVDGVEVHNAKTKPREEQYNSTYRVVSVLNPYHQDWLNGKEYKCKVSNKALGAPIEKTISKAKGQPREPQVYTLPPSREEMTKNQVSLTCLVKGFYPSDIAVEWESNGQPENNYKTTPPVLDSDGSFFLYSKLTVDKSRWQQGNVFSCSVMHEALRWHYTQKSLSLSPGK
chain 2: not shown
Regarding B9, the Kd in assay [1] was 2.45 nM; in assay [2], 15.1 nM; in assay [3], 1.23 nM; in assay [4], 1.23 nM; in assay [5], 0.782 nM.

B10: B14 H11A4.2 (mAb) (antibody)
chain 1: MGWSCIILFLVATATGVHSQVQLVESGGGLVKPGGSLRLSCAASGFTFSDYYMSWIRQAPGKGLEWVSYITYSGSTIYYADSVKGRFTISRDNAKSSLYLQMNSLRAEDTAVYYCARDRGTTMVPFDYWGQGTLVTVSSASTKGPSVFPLAPSSKSTSGGTAALGCLVKDYFPEPVTVSWNSGALTSGVHTFPAVLQSSGLYSLSSVVTVPSSSLGTQTYICNVNHKPSNTKVDKKVEPKSCDKTHTCPPCPAPELLGGPSVFLFPPKPKDTLYITREPEVTCVVVDVSHEDPEVKFNWYVDGVEVHNAKTKPREEQYNSTYRVVSVLNPYHQDWLNGKEYKCKVSNKALPAPIEKTISKAKGQPREPQVYTLPPSREEMTKNQVSLTCLVKGFYPSDIAVEWESNGQPENNYKTTPPVLDSDGSFFLYSKLTVDKSRWQQGNVFSCSVMHEALRWHYTQKSLSLSPGK
chain 2: not shown
Turning to B10, binding in assay [4] was put at a Kd of 1.74 nM.
